In patent US20120058906A1 (published 2012):

Legend:
[1] = target: T1, Recombinant Human DLL4 (R&D Systems Cat#1506-D4/CF) (human, UniProt Q9NR61 27-524); experiment: MSD ECL multi-spot plate, antigen immobilized; Fab 40 nM; blank spot 502;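 also: blank spot per well as comparator with Hit at signal to blank ratio of 4 or more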
T1 construct: Purchased recombinant protein; also called delta-like protein 4

[2] = target: T2, rHuman Erythropoietin R/Fc Chimera, CF (R&D Systems Cat#963-ER) (human, UniProt P19235 25-250); experiment: as above
T2 construct: Purchased Fc chimera; also called EPO R/Fc; Epo R; not shown: Fc portion of the purchased chimera
T2 sequence: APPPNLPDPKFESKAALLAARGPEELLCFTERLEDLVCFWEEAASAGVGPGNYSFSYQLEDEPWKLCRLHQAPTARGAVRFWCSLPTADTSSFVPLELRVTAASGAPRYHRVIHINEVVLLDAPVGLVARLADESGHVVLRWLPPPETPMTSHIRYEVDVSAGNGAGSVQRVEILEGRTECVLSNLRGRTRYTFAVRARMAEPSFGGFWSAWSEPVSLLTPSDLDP

- ECL signal [1]: 19500 ECL signal
- ECL signal [2]: 994 ECL signal
B1: Fab VH5-51_IGHD5-18*01>3_IGHJ4*01_G100R & V3-4_IGLJ1*01 (Fab, V domains shown)
VH: EVQLVQSGAEVKKPGESLKISCKGSGYSFTSYWIGWVRQMPGKGLEWMGIIYPGDSDTRYSPSFQGQVTISADKSISTAYLQWSSLKASDTAMYYCARRRYSYGYDYFDYWGQGTLVTVSS
VL: QTVVTQEPSFSVSPGGTVTLTCGLSSGSVSTSYYPSWYQQTPGQAPRTLIYSTNTRSSGVPDRFSGSILGNKAALTITGAQADDESDYYCVLYMGSGISYVFGTGTKVTVL
notes: It was expressed as a Fab: CH1 with tags from Plasmid A and lambda CL from Plasmid E; also called Fab No. 23
